Our source for the acetyl group hydrolysis by PksD relative to the acetyl-PksJ ACP4 domain, intact protein-MS values is publication PMC11775670.

The assay addresses PksD (Bacillus subtilis str. 168) (UniProt O34877). The following applies: scale: % relative to the acetyl-PksJ ACP4 domain.
Sequence of UniProt O34877 (O34877 whole entry, the tested form may be a part): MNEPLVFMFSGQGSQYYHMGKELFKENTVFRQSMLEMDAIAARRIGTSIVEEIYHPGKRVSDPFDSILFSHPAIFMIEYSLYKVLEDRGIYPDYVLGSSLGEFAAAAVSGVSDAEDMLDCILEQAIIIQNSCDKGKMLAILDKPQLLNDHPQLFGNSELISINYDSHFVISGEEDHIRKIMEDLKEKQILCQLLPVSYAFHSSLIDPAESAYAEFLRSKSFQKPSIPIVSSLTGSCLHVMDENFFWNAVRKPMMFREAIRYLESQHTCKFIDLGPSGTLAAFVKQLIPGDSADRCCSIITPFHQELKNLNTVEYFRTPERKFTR
In turn, “acetyl-loaded IcoA PCP2 domain (domain or fragment)” gave an acetyl group hydrolysis by PksD relative to the acetyl-PksJ ACP4 domain, intact protein-MS of 7.
In turn, “acetyl-loaded GbnD5 ACP12 domain (domain or fragment)” showed an acetyl group hydrolysis by PksD relative to the acetyl-PksJ ACP4 domain, intact protein-MS of 41.
With “acetyl-loaded BlmVIII ACP7 domain (domain or fragment)”, the acetyl group hydrolysis by PksD relative to the acetyl-PksJ ACP4 domain, intact protein-MS worked out at 12.
